Laboratory results as given in patent publication US7470668B2, “Method of use of specific natriuretic peptide receptor c ligands, transgenic non-human mammals expressing specific natriuretic peptide receptor c antagonists and cells thereof” (Enobia Pharma Inc., priority 2005, dated 2008).
No end group written: not given here.

T1: NPR-C (Homo sapiens, UniProt P17342)
T1 construct: expressed in transfected cells; host or cells: HEK293, transient, pCDNA1.1 (CMV promoter)
T1 sequence (P17342 27-541): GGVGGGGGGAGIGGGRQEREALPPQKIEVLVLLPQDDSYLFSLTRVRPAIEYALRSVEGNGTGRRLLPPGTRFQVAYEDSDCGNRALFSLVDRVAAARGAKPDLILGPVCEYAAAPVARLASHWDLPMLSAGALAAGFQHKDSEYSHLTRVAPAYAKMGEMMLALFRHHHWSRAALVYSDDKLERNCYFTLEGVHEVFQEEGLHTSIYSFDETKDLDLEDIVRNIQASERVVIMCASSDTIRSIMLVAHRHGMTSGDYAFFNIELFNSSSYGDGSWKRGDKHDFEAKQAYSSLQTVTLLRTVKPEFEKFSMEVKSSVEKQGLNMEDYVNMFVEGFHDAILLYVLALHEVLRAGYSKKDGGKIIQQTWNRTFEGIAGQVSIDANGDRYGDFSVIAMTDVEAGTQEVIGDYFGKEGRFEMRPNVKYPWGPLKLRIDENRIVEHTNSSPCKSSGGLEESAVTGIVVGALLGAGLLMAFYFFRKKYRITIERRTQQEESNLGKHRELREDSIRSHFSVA

T2: rat GC-A (Rattus norvegicus, UniProt P18910)
T2 construct: expressed in transfected cells; host or cells: HEK293, transient, CMV-driven pBK plasmid (gift of Dr. A. De Léan)
T2 sequence (P18910 29-1057): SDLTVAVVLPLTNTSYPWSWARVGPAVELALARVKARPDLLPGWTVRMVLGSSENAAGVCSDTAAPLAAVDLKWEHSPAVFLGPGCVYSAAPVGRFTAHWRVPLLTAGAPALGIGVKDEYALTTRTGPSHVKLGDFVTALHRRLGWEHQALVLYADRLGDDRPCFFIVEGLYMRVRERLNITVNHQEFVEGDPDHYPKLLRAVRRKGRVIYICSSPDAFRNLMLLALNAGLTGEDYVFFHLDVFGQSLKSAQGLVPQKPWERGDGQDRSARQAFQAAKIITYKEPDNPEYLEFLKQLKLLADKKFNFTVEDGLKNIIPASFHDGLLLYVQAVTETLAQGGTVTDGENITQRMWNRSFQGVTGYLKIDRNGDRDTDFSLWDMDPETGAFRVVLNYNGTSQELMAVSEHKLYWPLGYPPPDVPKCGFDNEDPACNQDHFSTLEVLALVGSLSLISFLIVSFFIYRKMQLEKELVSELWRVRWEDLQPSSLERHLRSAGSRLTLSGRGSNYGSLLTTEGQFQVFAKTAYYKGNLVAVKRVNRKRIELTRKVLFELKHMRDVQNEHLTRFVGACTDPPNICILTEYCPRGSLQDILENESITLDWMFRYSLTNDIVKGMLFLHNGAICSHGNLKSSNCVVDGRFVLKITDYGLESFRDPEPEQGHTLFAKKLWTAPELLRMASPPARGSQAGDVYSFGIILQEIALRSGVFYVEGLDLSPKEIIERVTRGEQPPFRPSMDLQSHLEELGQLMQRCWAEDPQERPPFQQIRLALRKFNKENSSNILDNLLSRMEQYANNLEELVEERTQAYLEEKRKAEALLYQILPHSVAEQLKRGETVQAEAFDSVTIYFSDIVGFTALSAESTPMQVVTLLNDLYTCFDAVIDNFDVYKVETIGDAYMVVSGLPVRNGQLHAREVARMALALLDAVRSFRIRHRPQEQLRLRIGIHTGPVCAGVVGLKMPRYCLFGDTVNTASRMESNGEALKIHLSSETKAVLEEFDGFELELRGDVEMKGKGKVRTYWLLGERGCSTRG

T3: human GC-B (Homo sapiens, UniProt P20594)
T3 construct: expressed in transfected cells; host or cells: HEK293, transient, pCDNA1.1 (CMV promoter)
T3 sequence (P20594 23-1047): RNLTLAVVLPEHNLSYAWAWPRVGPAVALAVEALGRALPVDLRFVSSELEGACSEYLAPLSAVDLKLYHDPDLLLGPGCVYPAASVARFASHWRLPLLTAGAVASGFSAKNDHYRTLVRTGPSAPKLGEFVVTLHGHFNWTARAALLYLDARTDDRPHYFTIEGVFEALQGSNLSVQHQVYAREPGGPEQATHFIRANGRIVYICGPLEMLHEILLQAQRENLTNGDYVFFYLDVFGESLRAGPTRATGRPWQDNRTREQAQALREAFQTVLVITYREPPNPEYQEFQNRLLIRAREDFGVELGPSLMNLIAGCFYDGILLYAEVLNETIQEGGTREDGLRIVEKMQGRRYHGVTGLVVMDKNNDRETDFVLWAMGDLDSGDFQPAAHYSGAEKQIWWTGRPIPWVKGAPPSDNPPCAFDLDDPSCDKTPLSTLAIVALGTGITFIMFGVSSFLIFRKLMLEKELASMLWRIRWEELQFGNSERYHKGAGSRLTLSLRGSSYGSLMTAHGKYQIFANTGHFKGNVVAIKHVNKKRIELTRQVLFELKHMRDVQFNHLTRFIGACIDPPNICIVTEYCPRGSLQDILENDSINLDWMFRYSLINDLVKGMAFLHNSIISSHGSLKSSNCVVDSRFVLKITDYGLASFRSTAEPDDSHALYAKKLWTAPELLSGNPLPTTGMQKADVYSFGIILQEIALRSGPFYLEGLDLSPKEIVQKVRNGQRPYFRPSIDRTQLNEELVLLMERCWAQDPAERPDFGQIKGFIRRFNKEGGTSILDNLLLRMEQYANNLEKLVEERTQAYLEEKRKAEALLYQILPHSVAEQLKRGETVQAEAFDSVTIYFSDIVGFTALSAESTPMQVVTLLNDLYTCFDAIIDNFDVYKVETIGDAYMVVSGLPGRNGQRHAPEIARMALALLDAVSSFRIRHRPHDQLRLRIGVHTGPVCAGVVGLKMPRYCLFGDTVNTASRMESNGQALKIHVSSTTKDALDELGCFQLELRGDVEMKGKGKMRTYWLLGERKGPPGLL


Legend:
[1] = target: T1, NPR-C; experiment: Competition of PLAP-Ostn binding on NPR-C over-expressing cells; conditions: ~30 nM PLAP-Ostn, NPR-C transfected cells; read-out: concentration competing off 50% of the binding of PLAP-mOstn
Description: (§1) The expression plasmid for rat GC-A containing the entire coding sequence cloned between the NheI-KpnI sites of CMV-driven pBK plasmid (Stratagene, La Jolla, Calif.) was kindly provided by Dr. A. De Léan (Département de Pharmacologie, Université de Montréal). The human NPR-C and GC-B coding sequences were amplified by RT-PCR from human embryonic kidney polyA RNA (Clontech, Palo Alto, Calif.) with the following primer pairs: NPR-C-5′-[…]-3′(forward) (SEQ ID NO: 74) and 5′-[…]-3′ (SEQ ID NO: 75) (reverse); GC-B-5′-[…]-3′ (SEQ ID NO: 76) (forward) and 5′-[…]-3′ (SEQ ID NO: 77) (reverse). The resulting PCR products were then cloned downstream of the CMV-promoter into the pCDNA1.1 plasmid (Invitrogen, Burlington, ON, Canada). All constructs were validated by DNA sequencing.

[2] = target: T2, rat GC-A; experiment: PLAP-Ostn binding to GC-A transfected HEK293 cells; conditions: cells overexpressing GC-A (not shown)
Description: as §1
(§2) To analyze the potential binding of Ostn to natriuretic receptors, a fusion protein (PLAP-Ostn) (FIG. 6) was generated as described above. This fusion protein comprised an N-terminal secreted placental alkaline phosphatase (PLAP) moiety linked to mature mouse Ostn (residues 29-130) (SEQ ID NO: 62). Conditioned media containing PLAP-mOstn was used to assess Ostn binding on transiently transfected cells.
(§3) Expression vectors for the coding sequence of GC-A, GC-B and NPR-C were constructed, transfected into human embryonic kidney (HEK) 293 cells and the cells incubated with either 37 nM PLAP or the PLAP-Ostn fusion. […]

[3] = target: T3, human GC-B; experiment: PLAP-Ostn binding to GC-B transfected HEK293 cells; conditions: cells overexpressing GC-B
Description: as §1, §2, §3

| IC50 [1] | specific binding [2] | specific binding [3] | Molecule |
| --- | --- | --- | --- |
| 1 to 10 nM |  |  | YDHSKKRFGIPMDRIGRNRLSNSR-NH2 [Ostn[107-129]] |
|  | No specific binding | No specific binding | PLAP-mOstn: fusion protein: N-terminal secreted placental alkaline phosphatase moiety linked to mature mouse Ostn residues 29-130 (SEQ ID NO: 70) (protein) DAAQPARRARRTYEAYVRSSGIIPVEEENPDFWNREAAEALGAAKKLQPAQTAAKNLIIFLGDGMGVSTVTAARILKGQKKDKLGPEIPLAMDRFPYVALSKTYNVDKHVPDSGATATAYLCGVKGNFQTIGLSAAARFNQCNTTRGNEVISVMNRAKKAGKSVGVVTTTRVQHASPAGTYAHTVNRNWYSDADVPASARQEGCQDIATQLISNMDIDVILGGGRKYMFPMGTPDPEYPDDYSQGGTRLDGKNLVQEWLAKRQGARYVWNRTELMQASLDPSVTHLMGLFEPGDMKYEIHRDSTLDPSLMEMTEAALRLLSRNPRGFFLFVEGGRIDHGHHESRAYRALTETIMFDDAIERAGQLTSEEDTLSLVTADHSHVFSFGGYPLRGSSIFGLAPGKARDRKAYTVLLYGNGPGYVLKDGARPDVTESESGSPEYRQQSAVPLDEETHAGEDVAVFARGPQAHLVHGVQEQTFIAHVMAFAACLEPYTACDLAPPAGTTDAAHPGYLDLASQEFGTASLQSPPTAREEKSATELSAKLLRLDDLVSLENDVFETKKKRSFSGFGSPLDRLSAGSVEHRGKQRKAVDHSKKRFGIPMDRIGRNRLSSSRG |
